Experimental data: patent publication US20110229908A1

Experiments:
BJ kappa Ke (human) = assay: haemagglutination of sheep RBC coated with BJ kappa Ke
BJ kappa Bo (human) = assay: haemagglutination of sheep RBC coated with BJ kappa Bo

Binder | MAb dilution used against coated red cells (BJ kappa Ke (human)) | MAb dilution used against coated red cells (BJ kappa Bo (human))
monoclonal antibody KA1 (antibody, V domains shown) VH: DVQLQESGPGLVNPSQSLSLTCTVTGYSITGDYAWNWIRQFPGNKLEWMGYISYSGLTSYNPSLKSRISITRDTSKNQFFLQLNSVATEDTATYYCTSFYYGYWYFDVWGAGTTVTVSS VL: DIQMTQSPASLSASVGETVTITCRASENIYSFLTWYLQKQGKSPQLLVNNAKTLAEGVPSRFSGSGSGSQFSLKINSLQPEDFGTYYCQHHYGTPYTFGGGTKLEIKR | 1e-05 dilution | 
monoclonal antibody 1B6 (antibody, mouse IgG1, V domains shown) VH: RQFPGNKLEWMGYINYSGITSYNPSLKSRFSITRDTSKNQFFLQLNSVTTEDTATYYCASWYYGNWYFDVWGAGTTVTVSS VL: DIQMTQSPASLSVSVGETVTITCRASENIYSNLAWYQQKQGNSPQLLVYAATNLADGVPSRFSGSGSGTQYSLKINSLQSEDFGNYYCQHFWGTPWTFGGGTKLEIKR |  | 1e-05 dilution
